Measured values from patent US20240190975A1.

Target: human CCR8 (human) (UniProt P51685)
Test: cell-based or functional assay

Chain of UniProt P51685 (P51685 whole entry): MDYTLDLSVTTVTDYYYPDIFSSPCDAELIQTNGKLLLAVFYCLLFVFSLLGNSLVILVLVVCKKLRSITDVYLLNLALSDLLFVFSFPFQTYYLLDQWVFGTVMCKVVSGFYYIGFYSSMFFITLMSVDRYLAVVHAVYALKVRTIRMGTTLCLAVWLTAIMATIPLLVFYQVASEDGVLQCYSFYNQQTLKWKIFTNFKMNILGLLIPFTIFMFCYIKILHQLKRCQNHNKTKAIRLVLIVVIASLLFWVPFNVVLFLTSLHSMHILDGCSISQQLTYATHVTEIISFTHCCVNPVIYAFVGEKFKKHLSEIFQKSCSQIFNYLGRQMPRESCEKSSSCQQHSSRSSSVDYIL

anti-human CCR8 antibody (clone name: L263G8, BioLegend, Inc.)
inhibition of the cytotoxic activity of aCCR8-2-CAR-12-expressing KHYG-1 cells against ATN-1 cells (calcein), antibody at 33 nM added 10 minutes before the effector cells: > 50%
